Values joined by “and” are separate entries in the source; they are usually repeats but may differ in a detail not shown here. Identical values can stand only once.
Target: DnaJ heat shock protein family (Hsp40) member B6 (DNAJB6), wild type (human) (UniProt O75190)
Assay: native MS; 37 μM DNAJB6 (plain or BS3-crosslinked) with 1 μM Aβ(1–40), 10 mM ammonium acetate pH 7; direct detection of DNAJB6 signals and complexes

Chain of DnaJ heat shock protein family (Hsp40) member B6 (DNAJB6), wild type, O75190-2 1-241 (natural protein; other documents disagree on this pair) (O75190 other isoform, or with tags, fused parts or gaps): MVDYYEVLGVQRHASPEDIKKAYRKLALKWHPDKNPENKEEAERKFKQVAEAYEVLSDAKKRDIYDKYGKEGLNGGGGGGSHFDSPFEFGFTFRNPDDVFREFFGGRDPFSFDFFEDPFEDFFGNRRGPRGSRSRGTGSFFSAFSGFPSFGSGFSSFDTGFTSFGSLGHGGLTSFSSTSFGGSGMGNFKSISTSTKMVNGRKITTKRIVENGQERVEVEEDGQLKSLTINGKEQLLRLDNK

stoichiometry N: 2 and 3
Substance: DnaJ heat shock protein family (Hsp40) member B6 (DNAJB6), wild type, O75190-2 1-241 (natural protein; other documents disagree on this pair)

Source: PMC7294096
